Results reported in patent US20230357447A1 (JANUX THERAPEUTICS, published 2023).

Columns and labels:
[1] = biological target: T1, Anti-CD28 scFv (VH-linker 1-VL) (biotinylated (site not stated)); assay: phage binding ELISA on captured anti-CD28 scFv, wells pre-incubated with soluble CD28 (competitor);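 also: crude clonal phage supernatants added without washing, bound phage detected by HRP-conjugated anti-M13 antibody, control wells held blocking buffer alone instead of CD28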
T1 construct: biotinylated and captured on neutravidin coated plates in the phage ELISA
T1 sequence (scFv, as listed by the source): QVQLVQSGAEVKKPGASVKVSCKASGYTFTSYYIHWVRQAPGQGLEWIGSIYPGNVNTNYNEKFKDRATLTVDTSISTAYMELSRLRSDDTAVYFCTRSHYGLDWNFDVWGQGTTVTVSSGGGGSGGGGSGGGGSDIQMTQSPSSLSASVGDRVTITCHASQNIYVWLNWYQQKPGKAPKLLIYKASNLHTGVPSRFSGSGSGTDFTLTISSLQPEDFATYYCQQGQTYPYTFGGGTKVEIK

[2] = biological target: T1, Anti-CD28 scFv (VH-linker 1-VL); assay: phage binding ELISA on captured biotinylated anti-CD28 scFv;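 also: crude clonal phage supernatants applied to the wells, bound phage read out with an HRP-conjugated anti-M13 antibody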
Protocol: Clonal phage were harvested as crude supernatants and screened via standard enzyme linked immunosorbent assays (ELISAs). […] Prior to the addition of clonal phage, wells were incubated with blocking buffer and CD28 soluble protein or blocking buffer alone. Without washing or aspirating, clonal phage supernatants were then added to the wells and incubated for a short time. Wells were then washed followed by detection of bound phage using a horse radish peroxidase conjugated anti-M13 antibody.

[3] = biological target: T2, anti-CD28 scFv (VH-linker 1-VL) (biotinylated (site not stated)); assay: phage ELISA; biotinylated scFv on neutravidin plate; anti-M13-HRP;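 also: crude clonal phage supernatant added to wells pre-incubated with soluble CD28 protein or only blocking buffer, then washed, bound phage read out with an HRP-linked anti-M13 antibody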
T2 construct: Captured as biotinylated scFv on neutravidin coated plates in the phage ELISA
T2 sequence (scFv, as listed by the source): as above

[4] = biological target: T2, anti-CD28 scFv (VH-linker 1-VL); assay: phage ELISA; scFv wells pre-incubated with soluble CD28 (competitor);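 also: crude clonal phage supernatants added to wells pretreated with soluble CD28 in blocking buffer, bound phage read via HRP-linked anti-M13 antibody, reference wells got blocking buffer only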

MDWCPRILWSDCFN [Phage-373]
CD28 scFv signal in presence of CD28 [1]: 0.113 | CD28 scFv signal [2]: 0.847

LAGCQRDLATVCVI [Phage-383]
CD28 scFv signal in presence of CD28 [1]: 0.116 | CD28 scFv signal [2]: 0.229

MYWCPKYMWSECFA [Phage-418]
CD28 scFv signal in presence of CD28 [1]: 0.099 | CD28 scFv signal [2]: 0.741

IDWCPRYMWHECFF [Phage-410]
CD28 scFv signal in presence of CD28 [1]: 0.164 | CD28 scFv signal [2]: 1.18

QHWCPRDMWNDCYA [Phage-412]
CD28 scFv signal in presence of CD28 [1]: 0.149 | CD28 scFv signal [2]: 1.08

MSWCPWDMWNECFA [Phage-403]
CD28 scFv signal in presence of CD28 [1]: 0.108 | CD28 scFv signal [2]: 1.52

IYWCPTAMWNRCSA [Phage-417]
CD28 scFv signal in presence of CD28 [1]: 0.073 | CD28 scFv signal [2]: 0.817

NHWCPTTLWNRCVA [Phage-386]
CD28 scFv signal in presence of CD28 [1]: 0.093 | CD28 scFv signal [2]: 0.078

MSWCPRFMWHECFN [Phage-411]
CD28 scFv signal in presence of CD28 [1]: 0.246 | CD28 scFv signal [2]: 1.11

MDWCPRHMWHECFH [Phage-402]
CD28 scFv signal in presence of CD28 [1]: 0.171 | CD28 scFv signal [2]: 1.81

TTWCPTSMWLHCFD (on phage (pIII fusion)) [Phage-221 clonal phage peptide]
CD28 scFv signal [3]: 0.074 | CD28 scFv signal in presence of CD28 [4]: 0.072

MFWCPKDMWAECFA [Phage-408]
CD28 scFv signal in presence of CD28 [1]: 0.113 | CD28 scFv signal [2]: 1.26

MDWCPMYMWHKCFH [Phage-415]
CD28 scFv signal in presence of CD28 [1]: 0.168 | CD28 scFv signal [2]: 0.987

MNWCPIDMWTECFN [Phage-406]
CD28 scFv signal in presence of CD28 [1]: 0.175 | CD28 scFv signal [2]: 1.4

MDWCPLDMWVLCFA [Phage-401]
CD28 scFv signal in presence of CD28 [1]: 0.169 | CD28 scFv signal [2]: 1.84

LYWCPRDMWAYCYS [Phage-414]
CD28 scFv signal in presence of CD28 [1]: 0.157 | CD28 scFv signal [2]: 1.02

MDWCPRAMWDYCFY [Phage-397]
CD28 scFv signal in presence of CD28 [1]: 0.339 | CD28 scFv signal [2]: 2.11

MDWCPRDMWTSCFN [Phage-404]
CD28 scFv signal in presence of CD28 [1]: 0.179 | CD28 scFv signal [2]: 1.41

MDWCPRYMWSDCFF [Phage-394]
CD28 scFv signal in presence of CD28 [1]: 0.377 | CD28 scFv signal [2]: 2.28

MDYCPSYLWHECFA [Phage-380]
CD28 scFv signal in presence of CD28 [1]: 0.09 | CD28 scFv signal [2]: 0.47

MDWCPRSMWDSCFN [Phage-399]
CD28 scFv signal in presence of CD28 [1]: 0.142 | CD28 scFv signal [2]: 2.02

MDWCPSDMWSNCFN [Phage-413]
CD28 scFv signal in presence of CD28 [1]: 0.121 | CD28 scFv signal [2]: 1.07

MAWCPLDLWDKCFY [Phage-374]
CD28 scFv signal in presence of CD28 [1]: 0.141 | CD28 scFv signal [2]: 0.77

MTWCPAYLWHECFN [Phage-370]
CD28 scFv signal in presence of CD28 [1]: 0.139 | CD28 scFv signal [2]: 0.985

MDWCPRNLWAECFS [Phage-379]
CD28 scFv signal in presence of CD28 [1]: 0.08 | CD28 scFv signal [2]: 0.538

MAWCPRILWHQCFN [Phage-381]
CD28 scFv signal in presence of CD28 [1]: 0.129 | CD28 scFv signal [2]: 0.322

LHWCPITMWTYCYY [Phage-409]
CD28 scFv signal in presence of CD28 [1]: 0.516 | CD28 scFv signal [2]: 1.21

MDWCPRHLWTYCFH [Phage-376]
CD28 scFv signal in presence of CD28 [1]: 0.207 | CD28 scFv signal [2]: 0.757

ILRCQMNLQDECLN [Phage-385]
CD28 scFv signal in presence of CD28 [1]: 0.077 | CD28 scFv signal [2]: 0.083

MDWCPSFLWYECFN [Phage-367]
CD28 scFv signal in presence of CD28 [1]: 0.104 | CD28 scFv signal [2]: 1.13

MDWCPKDRWNDCYF (on phage (pIII fusion)) [Phage-224 clonal phage peptide]
CD28 scFv signal [3]: 1.09

MHWCPTYMWSECFA [Phage-400]
CD28 scFv signal in presence of CD28 [1]: 0.161 | CD28 scFv signal [2]: 1.84

MDWCPRYLWVDCFA [Phage-372]
CD28 scFv signal in presence of CD28 [1]: 0.218 | CD28 scFv signal [2]: 0.917

MDWCPRDMWFECFN [Phage-393]
CD28 scFv signal in presence of CD28 [1]: 0.778 | CD28 scFv signal [2]: 2.42

MSWCPPYLWTVCYN [Phage-368]
CD28 scFv signal in presence of CD28 [1]: 0.326 | CD28 scFv signal [2]: 1.1

IMWCPTSLWNRCVT [Phage-384]
CD28 scFv signal in presence of CD28 [1]: 0.129 | CD28 scFv signal [2]: 0.161

MFWCPSTMWNRCFD [Phage-420]
CD28 scFv signal in presence of CD28 [1]: 0.138 | CD28 scFv signal [2]: 0.464

MNWCPRALWHECFL [Phage-375]
CD28 scFv signal in presence of CD28 [1]: 0.107 | CD28 scFv signal [2]: 0.759

MDWCPKDMWAECFN [Phage-395]
CD28 scFv signal in presence of CD28 [1]: 0.457 | CD28 scFv signal [2]: 2.11

FDFCPTTMWTYCQH (on phage (pIII fusion)) [Phage-220 clonal phage peptide]
CD28 scFv signal [3]: 0.086 | CD28 scFv signal in presence of CD28 [4]: 0.081

MDWCPFDLWLECFN [Phage-377]
CD28 scFv signal in presence of CD28 [1]: 0.12 | CD28 scFv signal [2]: 0.65

MDWCPMSMWAFCFD [Phage-405]
CD28 scFv signal in presence of CD28 [1]: 0.16 | CD28 scFv signal [2]: 1.41

TDWCPRDMWYLCFN [Phage-396]
CD28 scFv signal in presence of CD28 [1]: 0.301 | CD28 scFv signal [2]: 2.11

MHWCPLHLWNECFA [Phage-378]
CD28 scFv signal in presence of CD28 [1]: 0.083 | CD28 scFv signal [2]: 0.575

NYWCPSSMWNRCLH (on phage (pIII fusion)) [Phage-219 clonal phage peptide]
CD28 scFv signal [3]: 0.158 | CD28 scFv signal in presence of CD28 [4]: 0.088

MDWCPFDMWADCFF [Phage-391]
CD28 scFv signal in presence of CD28 [1]: 0.215 | CD28 scFv signal [2]: 2.53

MNWCPIHMWNQCFA [Phage-407]
CD28 scFv signal in presence of CD28 [1]: 0.133 | CD28 scFv signal [2]: 1.37

MYWCPINMWDYCYA [Phage-422]
CD28 scFv signal in presence of CD28 [1]: 0.088 | CD28 scFv signal [2]: 0.109

MHWCPRDLWYECFA [Phage-369]
CD28 scFv signal in presence of CD28 [1]: 0.108 | CD28 scFv signal [2]: 0.995

TFGCPTTMWNRCFA (on phage (pIII fusion)) [Phage-218 clonal phage peptide]
CD28 scFv signal [3]: 0.181 | CD28 scFv signal in presence of CD28 [4]: 0.068

ITWCPTSLWNRCLV [Phage-382]
CD28 scFv signal in presence of CD28 [1]: 0.089 | CD28 scFv signal [2]: 0.242

MDWCPWDMWDKCFN (on phage (pIII fusion)) [Phage-217 clonal phage peptide]
CD28 scFv signal [3]: 0.586 | CD28 scFv signal in presence of CD28 [4]: 0.108

MDWCPRDQWHNCFN (on phage (pIII fusion)) [Phage-222 clonal phage peptide]
CD28 scFv signal [3]: 0.2 | CD28 scFv signal in presence of CD28 [4]: 0.078

MDWCPRNMWNECFF [Phage-398]
CD28 scFv signal in presence of CD28 [1]: 0.43 | CD28 scFv signal [2]: 2.1
